This experiment deals with 30-601-30 nucleosome with Cy3-labeled H2B(K120C) (Xenopus laevis). Kind of experiment: other fluorescence titration.

Substance “Saccharomyces cerevisiae Chd1[Y137A] (from UniProt P32657 118-1274) (enzyme)” returned an other of 40%.

These data come from paper PMC9107065.
